Blank lines part the entries; values can stand above or below the binder they belong to.
B1: GST-Fkh1 (natural protein, S. cerevisiae (budding yeast), UniProt P40466 1-484, looked up)
chain: MSVTSREQKFSGKYSSYTAQDRQGLVNAVTCVLSSSSDPVAVSSDYSNSLSIAREVNAYAKIAGCDWTYYVQKLEVTIGRNTDSLNLNAVPGTVVKKNIDIDLGPAKIVSRKHAAIRFNLESGSWELQIFGRNGAKVNFRRIPTGPDSPPTVLQSGCIIDIGGVQMIFILPEQETIISDYCLNHLMPKLLSTYGTNGNNNPLLRNIIEGSTYLREQRLQEEARLQQLDHLHTPLSSSSDVNPIGDPHGDTIMMEEDEEDENYTRGGIRPNTYTSSSNNAVTNGNVPHIENPSDLSLDENRYIKPPQSYASMITQAILSTPEGSISLADIYKFISDNYAFYRFSQMAWQNSVRHNLSLNKAFEKVPKRAGQQGKGMNWKISDEVRRDFLNKWNAGKLSKIRRGASVTRQLQLHMSKFGEIPAPESSSIDPRGIKAQKVKKSLQATSSILGESAPQLQRTQLTGQISTTTSMDVTTNANVNNSSLS
B3: His6-Sld3 (natural protein, S. cerevisiae (budding yeast), UniProt P53135 1-668, looked up)
chain: METWEVIASVKEATKGLDLSLDHPLIIKSEDVPSNILQLLQQKNRRQLKHICMKSRKEYFLLEEYGPGFWVKWPYNYFNGYSLPERRTEVVTTVERERAKRETLKTWDELKFKELLHLWSEEPKGSCKLEKDKDLKLDMNPPDMKGESKINDYYSDPKEYIESKYYDALFSIHTPLAYFVKSNLVRLKNTCRTKYGSDSYKIAYQAMLQKFLLSIVQFKDRHDNRLLLEPFSSPIADEKRKNCLTKFVIQDENKNSSTIADLCVVLKSREIKLQILLLLEIIGLNDLDWNFRDFEKKYKLKLKKRSLNLTKKGLVRRRSKKKTSEKDKGIERITTSLDYCEQLDLYLDRACILDILLSSETPNPDAIEASNGTIQEHKKNILDKSKEASLVGFINYVLIPYFNKKVPHAVEFIIQKLKGPSMRPKRALKKVNDSTNVSSPNTVETYNRLSTSQRASRSSIINSVPSSPALRRVDANLFSRKSIASPTPELLNSRTNSNLNEFLESETRSLKRPSQLGRTKSDLTMNHLQKRQFSVSDLSTTRVPNSSTITLKTPFSHSTINAYKTMNNSFRRVGKRKDINETIRLHERVDSEENVQVQATPAVKKRTVTPNKKAQLQSIIESPLNFKDDDTHEGRKNTSNITSTPTNKPPENSSKRRVRRRLFAPEST

Assays:
[1] = target: T1, Phosphatase-treated Dbf4 purified from yeast cells (S. cerevisiae (endogenous in yeast), UniProt P32325 1-704, treated with λ-phosphatase); assay: pull-down
T1 sequence (looked up): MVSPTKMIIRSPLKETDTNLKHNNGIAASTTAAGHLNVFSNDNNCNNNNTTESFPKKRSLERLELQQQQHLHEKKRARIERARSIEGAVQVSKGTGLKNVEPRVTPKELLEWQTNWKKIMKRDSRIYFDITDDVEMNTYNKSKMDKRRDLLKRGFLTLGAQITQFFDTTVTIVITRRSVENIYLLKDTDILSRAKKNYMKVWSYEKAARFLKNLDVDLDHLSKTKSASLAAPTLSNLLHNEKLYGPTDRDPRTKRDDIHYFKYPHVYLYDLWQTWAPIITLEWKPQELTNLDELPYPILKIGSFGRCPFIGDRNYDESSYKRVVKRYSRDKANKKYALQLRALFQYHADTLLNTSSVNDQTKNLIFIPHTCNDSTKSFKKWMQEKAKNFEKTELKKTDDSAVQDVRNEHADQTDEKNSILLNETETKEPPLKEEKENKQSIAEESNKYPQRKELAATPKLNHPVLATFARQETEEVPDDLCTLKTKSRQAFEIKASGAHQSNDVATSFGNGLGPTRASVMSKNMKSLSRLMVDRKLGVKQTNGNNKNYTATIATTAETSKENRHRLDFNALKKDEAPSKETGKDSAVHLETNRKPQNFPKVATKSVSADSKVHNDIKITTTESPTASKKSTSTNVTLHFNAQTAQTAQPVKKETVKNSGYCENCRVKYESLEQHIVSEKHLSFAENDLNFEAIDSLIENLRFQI

[2] = target: T2, Purified recombinant Dbf4 (6His-Dbf4p, pET28a-Dbf4) (S. cerevisiae (budding yeast), UniProt P32325 1-704); assay: in vitro origin recruitment assay on DNA beads
T2 sequence (looked up): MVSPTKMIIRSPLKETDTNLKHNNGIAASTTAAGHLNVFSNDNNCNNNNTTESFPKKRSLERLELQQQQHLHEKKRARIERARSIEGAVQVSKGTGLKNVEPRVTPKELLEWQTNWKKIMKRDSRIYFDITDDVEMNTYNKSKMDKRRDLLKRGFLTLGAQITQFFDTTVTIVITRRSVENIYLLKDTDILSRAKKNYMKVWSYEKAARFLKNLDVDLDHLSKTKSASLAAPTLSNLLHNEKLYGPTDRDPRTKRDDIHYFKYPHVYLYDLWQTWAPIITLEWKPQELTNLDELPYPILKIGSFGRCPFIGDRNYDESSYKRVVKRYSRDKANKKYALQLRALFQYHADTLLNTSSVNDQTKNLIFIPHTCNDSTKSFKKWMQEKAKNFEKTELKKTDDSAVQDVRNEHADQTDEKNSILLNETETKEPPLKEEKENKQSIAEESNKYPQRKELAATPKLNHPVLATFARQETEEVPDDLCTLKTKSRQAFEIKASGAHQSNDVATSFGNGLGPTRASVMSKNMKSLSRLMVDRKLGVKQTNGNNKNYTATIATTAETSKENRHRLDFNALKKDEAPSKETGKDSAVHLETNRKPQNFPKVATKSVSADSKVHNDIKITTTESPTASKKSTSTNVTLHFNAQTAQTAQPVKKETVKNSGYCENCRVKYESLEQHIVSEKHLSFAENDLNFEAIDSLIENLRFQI

[3] = target: T3, GST-Dbf4 (S. cerevisiae (budding yeast), UniProt P32325 1-704); assay: pull-down
T3 sequence (looked up): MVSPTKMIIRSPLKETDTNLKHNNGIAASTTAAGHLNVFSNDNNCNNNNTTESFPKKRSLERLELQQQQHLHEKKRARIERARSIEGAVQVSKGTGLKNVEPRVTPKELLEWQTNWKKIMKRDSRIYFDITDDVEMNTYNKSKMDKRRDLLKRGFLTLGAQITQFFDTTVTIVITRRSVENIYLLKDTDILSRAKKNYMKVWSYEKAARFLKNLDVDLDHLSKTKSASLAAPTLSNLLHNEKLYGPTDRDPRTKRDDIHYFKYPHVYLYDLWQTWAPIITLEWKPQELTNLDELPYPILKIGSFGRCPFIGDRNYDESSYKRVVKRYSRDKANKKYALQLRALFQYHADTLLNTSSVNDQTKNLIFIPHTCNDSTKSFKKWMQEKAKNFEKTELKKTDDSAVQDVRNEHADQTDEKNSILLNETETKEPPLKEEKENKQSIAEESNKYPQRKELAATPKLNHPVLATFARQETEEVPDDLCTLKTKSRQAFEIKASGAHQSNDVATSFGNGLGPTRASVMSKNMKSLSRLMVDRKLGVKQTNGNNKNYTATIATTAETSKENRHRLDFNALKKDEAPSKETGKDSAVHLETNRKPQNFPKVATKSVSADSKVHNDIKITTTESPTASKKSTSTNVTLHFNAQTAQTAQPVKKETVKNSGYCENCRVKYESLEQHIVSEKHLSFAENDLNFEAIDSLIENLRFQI

[4] = target: B3; assay: pull-down
[5] = target: B1; assay: pull-down

binding result [2]: binds
B2: Purified recombinant Fkh1 (in vitro recruitment assay) (natural protein, S. cerevisiae (budding yeast), UniProt P40466 1-484, looked up)
chain: MSVTSREQKFSGKYSSYTAQDRQGLVNAVTCVLSSSSDPVAVSSDYSNSLSIAREVNAYAKIAGCDWTYYVQKLEVTIGRNTDSLNLNAVPGTVVKKNIDIDLGPAKIVSRKHAAIRFNLESGSWELQIFGRNGAKVNFRRIPTGPDSPPTVLQSGCIIDIGGVQMIFILPEQETIISDYCLNHLMPKLLSTYGTNGNNNPLLRNIIEGSTYLREQRLQEEARLQQLDHLHTPLSSSSDVNPIGDPHGDTIMMEEDEEDENYTRGGIRPNTYTSSSNNAVTNGNVPHIENPSDLSLDENRYIKPPQSYASMITQAILSTPEGSISLADIYKFISDNYAFYRFSQMAWQNSVRHNLSLNKAFEKVPKRAGQQGKGMNWKISDEVRRDFLNKWNAGKLSKIRRGASVTRQLQLHMSKFGEIPAPESSSIDPRGIKAQKVKKSLQATSSILGESAPQLQRTQLTGQISTTTSMDVTTNANVNNSSLS

binding result [5]: binds
B5: 6His-Dbf4 (656-704) (domain or fragment, S. cerevisiae (budding yeast), UniProt P32325 656-704, looked up)
chain: KNSGYCENCRVKYESLEQHIVSEKHLSFAENDLNFEAIDSLIENLRFQI

Continued, binder first:

Binder: B1
binding result [1]: binds

Binder: B3
binding result [3]: binds

B4: GST-Dbf4 (1-390) (domain or fragment, S. cerevisiae (budding yeast), UniProt P32325 1-390, looked up)
chain: MVSPTKMIIRSPLKETDTNLKHNNGIAASTTAAGHLNVFSNDNNCNNNNTTESFPKKRSLERLELQQQQHLHEKKRARIERARSIEGAVQVSKGTGLKNVEPRVTPKELLEWQTNWKKIMKRDSRIYFDITDDVEMNTYNKSKMDKRRDLLKRGFLTLGAQITQFFDTTVTIVITRRSVENIYLLKDTDILSRAKKNYMKVWSYEKAARFLKNLDVDLDHLSKTKSASLAAPTLSNLLHNEKLYGPTDRDPRTKRDDIHYFKYPHVYLYDLWQTWAPIITLEWKPQELTNLDELPYPILKIGSFGRCPFIGDRNYDESSYKRVVKRYSRDKANKKYALQLRALFQYHADTLLNTSSVNDQTKNLIFIPHTCNDSTKSFKKWMQEKAKNFE
binding result [4]: binds

— publication PMC5795786 (Genes & Development, 2017)
